In patent US20210102195A1 (TWIST BIOSCIENCE, published 2021) one finds Kd data, which are given here for eight molecules.

First the molecules themselves.
T1: human TIGIT (human, UniProt Q495A1 22-141, limits assumed)
T1 construct: also called hTIGIT
T1 sequence (looked up): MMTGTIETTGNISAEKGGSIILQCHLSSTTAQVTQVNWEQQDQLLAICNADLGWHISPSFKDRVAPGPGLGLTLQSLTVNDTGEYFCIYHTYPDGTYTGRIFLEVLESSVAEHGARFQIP

B1: TIGIT-55-08 (antibody, V domains shown)
VH: EVQLLESGGGLVQPGGSLRLSCAASGFMFSDYAMSWVRQAPGKGLEWVSGISGSGGYTYYADSVKGRFTISRDNSKNTLYLQMNSLRAEDTAVYYCTRSWYYYYGMDVWGQGTLVTVSS
VL: DIQMTQSPSSLSASVGDRVTITCRAGQSIRSYLNWYQQKPGKAPKLLIYASSNLQSGVPSRFSGSGSGTDFTLTISSLQPEDFATYYCQQSYSTPLLTFGGGTKVEIK
notes: hTIGIT IgG
B2: TIGIT-55-13 (antibody, V domains shown)
VH: EVQLLESGGGLVQPGGSLRLSCAASGFTFSTYGMNWVRQAPGKGLEWVSTISGSGGSTYFADSVKGRFTISRDNSKNTLYLQMNSLRAEDTAVYYCARNSGWFMPFDYWGQGTLVTVSS
VL: DIQMTQSPSSLSASVGDRVTITCRTSQSISTYLNWYQQKPGKAPKLLIYATSRLQSGVPSRFSGSGSGTDFTLTISSLQPEDFATYYCQQSYTTPLTFGGGTKVEIK
notes: hTIGIT IgG
B3: TIGIT-55-14 (antibody, V domains shown)
VH: EVQLLESGGGLVQPGGSLRLSCAASGFMFSRYAMSWVRQAPGKGLEWVSSISGSGGTTYYADSVKGRFTISRDNSKNTLYLQMNSLRAEDTAVYYCARRGSGWYIDSWGQGTLVTVSS
VL: B2 VL with T25A, I29V, T31R, A50G, T51S, R53N, Q90E, T93S, L96F
notes: hTIGIT IgG
B4: TIGIT-55-05 (antibody, V domains shown)
VH: EVQLLESGGGLVQPGGSLRLSCAASGFVFSSYAMNWVRQAPGKGLEWVSTVSGSGGTTYYADSVKGRFTISRDNSKNTLYLQMNSLRAEDTAVYYCARAPYSSSSWFDYWGQGTLVTVSS
VL: DIQMTQSPSSLSASVGDRVTITCRASQSVRSYLNWYQQKPGKAPKLLIYTATSLESGVPSRFSGSGSGTDFTLTISSLQPEDFATYYCQQSYGLPRTFGGGTKVEIK
notes: hTIGIT IgG
B5: TIGIT-55-06 (antibody, V domains shown)
VH: EVQLLESGGGLVQPGGSLRLSCAASGFTFSRYTMNWVRQAPGKGLEWVSGISGSGGGAYYADSVKGRFTISRDNSKNTLYLQMNSLRAEDTAVYYCARNSYGPPRSFGMDVWGQGTLVTVSS
VL: B2 VL with T25A, T31K, A50G, T51A, R53S, Q55R, S56G, T93R, T94P
notes: hTIGIT IgG
B6: TIGIT-55-11 (antibody, V domains shown)
VH: EVQLLESGGGLVQPGGSLRLSCAASGFTFTNYGMSWVRQAPGKGLEWVSSISGSGSTTYYADSVKGRFTISRDNSKNTLYLQMNSLRAEDTAVYYCASVKRWGYYFNWWGQGTLVTVSS
VL: DIQMTQSPSSLSASVGDRVTITCRASQNINYYLNWYQQKPGKAPKLLIYGASSLQNGVPSRFSGSGSGTDFTLTISSLQPEDFATYYCQQSYITPYTGGGTKVEIK
notes: hTIGIT IgG
B7: TIGIT-55-07 (antibody, V domains shown)
VH: EVQLLESGGGLVQPGGSLRLSCAASGFTFSSYGMTWVRQAPGKGLEWVSAISGRGSSTYYADSVKGRFTISRDNSKNTLYLQMNSLRAEDTAVYYCARTPYRSGWADYWGQGTLVTVSS
VL: DIQMTQSPSSLSASVGDRVTITCRASQNIKTYLNWYQQKPGKAPKLLIYAASSLHTGVPSRFSGSGSGTDFTLTISSLQPEDFATYYCQQTYSIPQTFGGGTKVEIK
notes: hTIGIT IgG
B8: TIGIT-55-12 (antibody, V domains shown)
VH: EVQLLESGGGLVQPGGSLRLSCAASGFTLSSYAMAWVRQAPGKGLEWVSTLSGSGGSTYYADSVKGRFTISRDNSKNTLYLQMNSLRAEDTAVYYCARVRVGAYDAFDIWGQGTLVTVSS
VL: B7 VL with S9Y, N28S, K30R, T31R, A50R, S53T, H55Q, I94S, Q96F
notes: hTIGIT IgG

Residue numbers refer to the chain shown, from its start.

In this assay the target is T1, human TIGIT. As to the kind of experiment: monovalent affinity of the hTIGIT IgGs; method not named in Example 14.
For the molecule B1, the Kd was 113 nM.
For B2 the value was 112 nM; for B3, 139 nM.
For B4 the value was 97.6 nM; for B5, 153 nM; for B6, 327 nM.
For B7 the value was 231 nM; for B8, 148 nM.
